Among the data in article PMC10403523 are Kd and Ki values, retold here.

As usually defined, the Ki is a dissociation constant, usually derived from enzyme kinetics or from competition with a known ligand.

The subject of data set [1] is yeast SWI/SNF complex, Snf2 delta-AT (Saccharomyces cerevisiae). The data set is described as follows: EMSA. As to conditions: apparent KD, Kd EMSA: 6.7 nM DNA or nucleosome, 1.3-23 nM SWI/SNF, 4% native PAGE (79:1), Methods: prebinding 30 C, 15 min, gel in 0.5x TBE, binding buffer, salt and pH not …. (A gel shift assay detects complexes by their altered migration in electrophoresis.)

For data set [2] the test system is unchanged. The data set is described as follows: competition. The following applies: EMSA competition against 601 DNA; Kd EMSA: 6.7 nM DNA or nucleosome, 1.3-23 nM SWI/SNF, 4% native PAGE (79:1); Methods: prebinding 30 C, 15 min, gel in 0.5x …; binding buffer, salt and pH not.

As to 29N59 nucleosome, the Kd in data set [1] (6.7 nM nucleosome, recombinant Xenopus laevis histone octamer) was 0.0205 µM.
In the case of 235 bp 601 DNA, the Kd in data set [1] (6.7 nM DNA) turned out to be 0.0128 µM.
pUC19 plasmid: in data set [2], the Ki was determined as 0.025 µM.
